Laboratory results taken from paper PMC7954794 (2021).
No end group written: not given here.

Key:
Experiment in all cases: FP
[1] = biological target: NCK2 3|2|1 full-length recombinant protein (SH3-shuffled, tag-free) (mouse, UniProt O55033 198-256; O55033 60-197; O55033 2-59; O55033 257-380)
[2] = biological target: NCK2 full-length recombinant protein (mouse, WT, tag-free) (mouse, UniProt O55033 1-380)
[3] = biological target: NCK2 2|3|1 full-length recombinant protein (SH3-shuffled, tag-free) (mouse, UniProt O55033 114-170; O55033 60-113; O55033 198-256; O55033 171-197; O55033 2-59; …)
[4] = biological target: NCK2 1|3|2 full-length recombinant protein (SH3-shuffled, tag-free) (mouse, UniProt O55033 1-113; O55033 198-256; O55033 171-197; O55033 114-170; O55033 257-380)
[5] = biological target: NCK2 3|1|2 full-length recombinant protein (SH3-shuffled, tag-free) (mouse, UniProt O55033 198-256; O55033 60-113; O55033 2-59; O55033 171-197; O55033 114-170; …)
[6] = biological target: NCK2 2|1|3 full-length recombinant protein (SH3-shuffled, tag-free) (mouse, UniProt O55033 114-170; O55033 60-113; O55033 2-59; O55033 171-380)
Sequence of NCK2 2|1|3 full-length recombinant protein (SH3-shuffled, tag-free) (O55033 other isoform, or with tags, fused parts or gaps): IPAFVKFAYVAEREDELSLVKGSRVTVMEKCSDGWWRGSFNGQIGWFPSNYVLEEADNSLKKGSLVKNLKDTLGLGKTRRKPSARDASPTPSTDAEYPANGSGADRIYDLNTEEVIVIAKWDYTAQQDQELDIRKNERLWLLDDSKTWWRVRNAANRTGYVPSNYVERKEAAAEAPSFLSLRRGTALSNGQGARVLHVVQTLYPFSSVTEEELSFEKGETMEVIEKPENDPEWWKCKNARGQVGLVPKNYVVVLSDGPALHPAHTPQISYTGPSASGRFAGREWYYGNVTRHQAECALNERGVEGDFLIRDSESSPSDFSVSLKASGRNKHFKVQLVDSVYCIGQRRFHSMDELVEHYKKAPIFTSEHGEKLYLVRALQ

Sequence of NCK2 2|3|1 full-length recombinant protein (SH3-shuffled, tag-free) (O55033 other isoform, or with tags, fused parts or gaps): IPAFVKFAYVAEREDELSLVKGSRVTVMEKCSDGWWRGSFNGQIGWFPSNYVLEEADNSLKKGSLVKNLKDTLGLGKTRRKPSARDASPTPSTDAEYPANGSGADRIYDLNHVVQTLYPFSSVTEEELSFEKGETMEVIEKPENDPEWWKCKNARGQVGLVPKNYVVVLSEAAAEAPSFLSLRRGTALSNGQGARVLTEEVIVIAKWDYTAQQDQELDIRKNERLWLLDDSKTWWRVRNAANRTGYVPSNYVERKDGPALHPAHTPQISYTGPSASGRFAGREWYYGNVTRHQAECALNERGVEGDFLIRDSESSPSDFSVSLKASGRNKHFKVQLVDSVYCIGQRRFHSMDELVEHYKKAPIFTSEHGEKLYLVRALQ
Sequence of NCK2 full-length recombinant protein (mouse, WT, tag-free) (O55033 whole entry): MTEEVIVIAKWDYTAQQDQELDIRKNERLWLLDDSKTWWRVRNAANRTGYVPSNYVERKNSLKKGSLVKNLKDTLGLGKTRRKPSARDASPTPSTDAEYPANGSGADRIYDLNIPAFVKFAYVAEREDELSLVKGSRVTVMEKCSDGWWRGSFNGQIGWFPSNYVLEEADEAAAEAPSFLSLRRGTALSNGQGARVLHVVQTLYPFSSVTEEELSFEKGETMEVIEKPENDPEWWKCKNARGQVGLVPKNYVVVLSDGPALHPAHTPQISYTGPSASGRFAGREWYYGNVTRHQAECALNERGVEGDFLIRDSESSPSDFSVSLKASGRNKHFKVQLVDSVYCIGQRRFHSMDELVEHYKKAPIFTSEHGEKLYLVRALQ
Sequence of NCK2 3|1|2 full-length recombinant protein (SH3-shuffled, tag-free) (O55033 other isoform, or with tags, fused parts or gaps): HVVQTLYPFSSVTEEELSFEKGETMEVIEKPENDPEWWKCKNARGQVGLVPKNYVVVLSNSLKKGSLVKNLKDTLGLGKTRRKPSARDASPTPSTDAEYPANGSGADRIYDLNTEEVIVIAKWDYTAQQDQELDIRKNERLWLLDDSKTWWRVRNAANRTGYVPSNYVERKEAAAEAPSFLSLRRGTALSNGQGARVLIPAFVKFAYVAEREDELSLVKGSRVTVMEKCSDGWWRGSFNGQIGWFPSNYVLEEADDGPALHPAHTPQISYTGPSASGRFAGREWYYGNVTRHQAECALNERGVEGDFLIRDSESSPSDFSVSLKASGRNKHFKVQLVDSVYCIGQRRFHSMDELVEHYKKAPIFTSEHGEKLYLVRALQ
Sequence of NCK2 1|3|2 full-length recombinant protein (SH3-shuffled, tag-free) (O55033 other isoform, or with tags, fused parts or gaps): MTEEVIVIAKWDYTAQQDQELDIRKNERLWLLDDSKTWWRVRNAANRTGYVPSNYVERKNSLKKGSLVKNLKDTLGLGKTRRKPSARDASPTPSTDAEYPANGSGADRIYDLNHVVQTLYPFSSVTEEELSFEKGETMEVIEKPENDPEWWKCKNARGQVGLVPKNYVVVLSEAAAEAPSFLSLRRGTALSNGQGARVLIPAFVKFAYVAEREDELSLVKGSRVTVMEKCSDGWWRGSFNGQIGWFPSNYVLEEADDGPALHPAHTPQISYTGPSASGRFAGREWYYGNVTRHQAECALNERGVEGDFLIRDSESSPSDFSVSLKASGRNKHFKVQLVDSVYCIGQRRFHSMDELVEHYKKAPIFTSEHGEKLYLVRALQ
Sequence of NCK2 3|2|1 full-length recombinant protein (SH3-shuffled, tag-free) (O55033 other isoform, or with tags, fused parts or gaps): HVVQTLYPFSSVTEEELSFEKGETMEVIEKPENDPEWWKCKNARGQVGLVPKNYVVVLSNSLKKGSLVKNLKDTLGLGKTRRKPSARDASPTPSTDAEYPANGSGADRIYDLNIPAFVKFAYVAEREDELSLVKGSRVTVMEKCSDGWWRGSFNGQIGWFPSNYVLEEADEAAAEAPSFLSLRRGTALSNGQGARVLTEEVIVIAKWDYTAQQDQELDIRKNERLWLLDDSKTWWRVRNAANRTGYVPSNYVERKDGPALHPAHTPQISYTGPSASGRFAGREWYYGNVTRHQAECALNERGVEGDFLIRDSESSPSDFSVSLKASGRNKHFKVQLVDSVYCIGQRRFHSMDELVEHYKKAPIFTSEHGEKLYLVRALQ

Row | Binder | Kd [1] | Kd [2] | Kd [3] | Kd [4] | Kd [5] | Kd [6]
1 | DIQDKPPAPPMRNTST (also: fluorescein isothiocyanate-conjugated (position not given here)) [PAK1 peptide (DIQDKPPAPPMRNTST), fluorescein isothiocyanate-conjugated] | 31.6 µM | 36 µM | 21.6 µM | 77.9 µM | 54.8 µM | –
2 | RGQNKERPPPVPNPDY (also: fluorescein isothiocyanate-conjugated (position not given here)) [Cd3ε peptide (RGQNKERPPPVPNPDY), fluorescein isothiocyanate-conjugated] | – | 12.7 µM | 26.3 µM | 13.5 µM | 16.2 µM | 18 µM
